From a protein production outcome set (Wang et al. 2014)

Test: label from the status in PepcDB records
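Further: failed if final PepcDB status was selected cloned or expressed and not failed if soluble or beyond.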

| Sequence | protein production |
| --- | --- |
| MQFIKRAHGEEQPYWPAGPFKIRLPFVHYRWELPEMIQGFFMFVVGLAMIPLLESYLGMPYEAALAFTFVAGVGYILPALLGVPLVPGWITPAIPVVLLYLKGFEPGPEAIRALFALQIEVAIIFLILGATRLGSKLVDVIPNSLKCGIIIGAGMAAMMGELKIGGRIDATPISLIVGSIISAYILFSLSFKNVINENSFARKIANFGMVPGMIIAMLVGWTVGEYPLPDIKWGITNPDFSLMWQYLPFTVGYPDWEIFLLAIPTALIAYVIAFGDILVGFTLVNRVDHIRKDEKIEENVDRVHLVTAIRNGFHAFLAPWPGLAGPLWTAAHATVAERYAMGRKSMESIYSGGGTFWMSGLLALFALPLVTLFKPVLPIALSLTLVLTAYICIMVGMEQLKNSTERGVAGIVAVTLAMPDPKSTMYAVCIGVILYFLIERPRLMGKHNSEDNIIFADETQEEVAVTNSNNT | failed |
| MQFIYSIIGILLVLGIVYAISFNRKSVSLSLIGKALIVQFIIALILVRIPLGQQVVSVVSTGVTKVINCGQAGLNFVFGSLADSGAKTGFIFAIQTLGNIVFLSALVSLLYYVGILGFVVKWIGKGVGKIMKSSEVESFVAVANMFLGQTDSPILVSKYLGRMTDSEIMVVLVSGMGSMSVSILGGYIALGIPMEYLLIASTMVPIGSILIAKILLPQTEPVQKIDDIKMDNKGNNANVIDAIAEGASTGAQMAFSIGASLIAFVGLVSLINMMLSGLGIRLEQIFSYVFAPFGFLMGFDHKNILLEGNLLGSKLILNEFVSFQQLGDLIKSLDYRTALVATISLCGFANLSSLGICVSGIAVLCPEKRGTLARLVFRAMIGGIAVSMLSAFIVGIVTLF | failed |
| MQGADADTVADALASDDALPGAGGFAGELDGTLVRDVLGRYPLFVERAVSDEARLDPGQWSHDPTALADPRSFPAGHIRNESGTQQRWSLPSLDPFGDRETAIETVGETVETSIDAVDTDSLAIAFSGGVDSALLAARLDAPLYVAGFPDSHDIEAARSAAELLGTEVRVVELTHDAIERAVPEIARATARTNAMDVQIALPLYLVAERVAGDGFDRLALGQGADELFGGYAKVAKAPEDPRVEADTVRGAQREVIASLPDQLERDVLALRAAGVEPVTPLLHDRVIGAALRLDGDLLVDGETRKVALRAAARESLPDEIADRDKKAAQYGSLAARELDRLARQAGYKRRMDDHVTQYVESLVE | failed |
| MQGAGRLMQPRPDSAFVHDVRVTWGDCDPAKIAYTGHLPRFALEAIDAWWSEYHGPGGWYHLELDTNVGTPFVRLEMDFKSPVTPRHILKCHTWPTRLGTKSITFRVDGVQDGVTCFVGAFTCVFTIADQFKSQPAPDHLRALIEPHIPA | not failed |
| MQGQEDEVVLVEGPTLPETPRLFPLKIRCRADLVRLPLRMSEPLQSVVDHMATHLGVSPSRILLLFGETELSPTATPRTLKLGVADIIDCVVLTSS | not failed |
| MQGTKIRLMVGGLLLAAASNNVQAEALQPDPAWQQGKLDNGFSWQLLATPQRPSDRIELRLIVNTGSLSENTQEVGFAHLLPRLALMSSASFTPAQLQSLWQQGIDNERPLPPAITSYDFTLYSLSLPNNRPDLLKDALAWLSDTAGNLAVSEQTVNAALNTATDPIATFPQNIQEPWWRYRLKGSSLIGHDPGQPVTQPVDVEKLKQFYQQWYTPDAMTLYVVGNVDSRSIAAQISKAFSELKGKRTAPAAVATLAPLPPEPVSLMNEQAAQDTLSLMWDTPWHPIQDSMALSRYWRSDLAREALFWHIKQVLEKNNQKNLKLGFDCRVQYQRAQCAIHLNTPVENLTANMTFVARELAALRANGLSQAEFDALMTQKNDQLSKLFATYARTDTDILMSQRLRSQQSGVVDIAPEQYQKLRQAFLSGLTLAELNRELKQQLSQDTTLVLMQPKGEPEVNVKALQEIYNGIMAPQTVAEEEVAPAEAVETAPVMPTTAQ | failed |
| MQGVLLALVPMFAWGSIGFVANKFGGDAKQQTLGMTLGAFVFALIVFLFRMPTLTWQIFLIGFIGGLLWAIGQFGQFNSMKYMGVSVASPLSSGSQLVIGGLIGVFAFHEWTKQIQFILGFIAMAVLVVGFYFSAKRDPENAVVEEGRNYTKGLTALTYSTLGYVIYVILFNNLAVLWFNVHFDTLTIILPMSVGMIFGALVMGRFKIKMEKYVYQNMIVGAMWGVGNIFMLMAASAAGNAIAFSFSQLGVIVSTIGGILFLGEKKTKKELVYVGIGIVLFVTGAILLAIVKSKG | failed |
| MQHGARHRWGLTSGYRPGSGRRPGPSAVVAVAAFALVVASQGAAVARPAQAAAADREFASSFESGEPAPDWLSTVDTAADGSKRASGVDGGYSTGIPGNVTDHVTDVRAGAENTGAGEVKENLVDGESSTKWLTFTPTGWAEFDLDAPVKLVTYALTSANDADERDPADWTLQGSTDGKDWKTLDTRTGESFAERFQTKSYDLASPAEYQHFRLDITKNHGADLLQLADVQFSTGGTSDPAPKDMLSLVDRGPSGSPTAKAGAGFTGKRALRYAGTHKADARAYSYNKVFDVNVGVGRDTELSYRIFPSMADKDRDYDATNVSVDLVFTDGTYLSDLKATDQHGFALTPQGQGAAKILYVNQWNNVVSRIGSVAAGRTVDRILVAYDSPKGPAKFRGWLDDIALKAAPPEKPKAHLSDYALTTRGTNSSSGFSRGNNFPATAVPHGFNFWTPVTNAGSLSWLYDYARSNNADNLPTIQAFSASHEPSPWMGDRQTFQVMPSAASGTPDTGRTARALAFRHENETARPYYYGVTFENGLKAEMAPTDHAAALRFTYPGDDASVLFDNVTDQAGLTLDKEHGIVTGYSDVKSGLSTGATRLFVYGVFDAPVKEGASSGVKGYLRFAPGADHTVTLRLATSLISVDQAKDNLGQEIPDGTSFTTVKNRAQQQWDKLLGKVEVEGATPDQLTTLYSSMYRLYLYPNSGFEKIGSKYRYASPFQPMPSPDTPTHTGAKIVDGKVYVNNGFWDTYRTTWPAYSFLTPGQAGEMVDGFVQQYKDGGWTSRWSSPGYADLMTGTSSDVAFADAYVKGVDFDAKAAYDAAVKNATVVPPSSGVGRKGMATSPFLGYTSTDTSEGLSWAMEGYNNDYGIARMGQALYKKTGKKRYKEEAAYFLNRAQDYVKLFDGKAGFFQGRDGKGDWRVDSATYDPRVWGYDYTETNGWGYAFTAPQDSRGLANLYGGRGALAKKLDTYFATPETASPDFVGSYGGVIHEMTEARDVRMGMYGHSNQVAHHVNYMYDAAGRPWKTQANVREVLSRLYTGSEIGQGYHGDEDNGEQSAWYLFSALGFYPLVMGSGEYAIGSPLFTKATVHLENGRDLVVKAPKNSAKNVYVQGLKVNGKKWTSTSLPHSLIAKGGVLAFDMGAKPSSWGSGGGAGPVSITKGDQVPSPRADAIKGGGALFDDTSATSATVTSVELPVAARTKAVQYTLTSSSDHTAAPAGWVLEASADGTHWTTVDRRTDESFTWDRQTRVFSIAHPGKYAHYRLVPTAEATLAEVELLS | failed |
| MQHPRQGPPSRHTRRSLGRSLALTMTAVLGAAGLALSPAASADSGPTTADPTEAHGLKGEYYTQSAPGAFDFAELKATGFDPGLDFDSLESRLSAATGRADDVSVRWTGEVVPEKSGPTTFSITGDNGFRLWVDGKLTIDHWVDDWDREQTSQPVDLTAGRAYDIKVEYFEHFGGSNLHLRWTPPGGSKSAVPQSAFRLPDGFDYNGALSATVLGDGRTVRLDFPQALASAPATVLDHLTVTSGGKWPLSSVKTDPSDARALLVGLGEPVVGNKAGTAKGGVNVTYDGKGALADTSGTPVKAFWSSGPNKSTYELRTKWADQVGPKNALPEYPRPQLTRKAWQNLNGTWQFAGAKAGEEPPTGRTLAERILVPYPVESQLSGIERHEDRMWYRRTFTVPADWKVGHGKRLRLNFGAVDWQSEVYVNGTKVAEHKGGYDKFSADVTDALKPGRTQELIVGVYDPTDAQGGENPPLGKQRLDPSGIWYTPSSGIWQTVWMEPVAADHVDTLKLTPDVETSTLTVEPKGVRDGLAVTATAYDGKKKVATVRGRTGTPLTLKLAEPRLWSPDDPFLYDLKVDVGADRVGSYFGMRSIAVEKVDGTPRTVLNGKPVFMMATLDQGFWPDGLHTAPTDDALAHDLKMHKQMGFNSVRKHIKVEPDRWFYWADRLGLLVWQDMPAMTAGVNPNAASRAEYEREMKQLIDEHISSPSVVMWVTFNEGWGQYDEARIADQAKAWDPTRLVNSMSGLNLGVDGGTGDVMDEHGYPSPALPPHPDGRRALVSGEYGGLGLGVPGHAWSVQMSYVDVDPAAYTDTYLARLDEVRRLACRGGNGAVYTQISDVEGELNGLMTYDRKIVKPDVQRLRTAHEALIEAVAQSTLPCATS | failed |
| MQHSTLEPSTSLDVPSCIPRVSRYPRVKDVIARKYRLVVKTIGYIGWSLFWLLIWDVLVTIDFMLFLNSKFTLPLIPLTLLGSALVVLVSFRNSSAYSRWWEARTLWGALVNSSRSFARQTLTLIDDPDDGLNPVKATLLRRHIAYVNCLAAHLKGESCPEELMAFIPPAEFERRNRSNNFANDILGGSAALLAREYQAGRLDSIRLARLESTLVDLSNAQGGMERIANTPLPYPYVYFPRLFITLFCLIVPVGLVESLGWFTPLASTVVGFMLLAIERIGTDLQSPFRFSEHQIQMDTICETIERNLESMQREAQCAEAVDA | failed |
| MQHYFYYIHSKHITPCFIFVDDVLSCLQRLNYQHLPAVSWSCFVSDQIIARVSQSLAKEQSLESLVRQLLEMLEMVTDMESTYLTKVDVEARLQHIMFARNSQKMHIPENFTVSWDYSLCKRAIDENCFFSDEVPDRWGDCIAARNLGITTFLSTPIHLPDGSFYGTLCAASSEKRQWSERAEQVLQLFAGLIAQYIQKEALVEQLREANAALIAQSYTDSLTGLPNRRAIFENLTTLFSLARHLNHKIMIAFIDLDNFKLINDRFGHNSGDLFLIQVGERLNTLQQNGEVIGRLGGDEFLVVSLNNENADISSLRERIQQQIRGEYHLGDVDLYYPGASLGIVEVDPETTDADSALHAADIAMYQEKKHKQKTPFVTHSALHS | failed |
| MQIGKVTGSLWATRKDEKLNGLKLLLVEITDEVEDKRHSIVAADNAGAGNGDLVLVTTGSAARASTGDNTIPVDACIVGIIDSVERYGLEHHHHHH | failed |
| MQIGPGSATRLEFRRHFAATPEQLWAALTSPALLPAWLFARGWPMTECVFEPHKGGLIRQVWTGPEGRTRGLTGRVILAEPPHRLIHSELYDEDWTGGETLVTLQLLPVEGGTELAMAVDYATPEARDAVAASAMATEMEEAYRHLDVMLAALEHHHHHH | not failed |
| MQIKAGLIWMNGAFVPQEEAKTSVLSHALHYGTSVFEGIRAYETAKGPAIFRLKEHVKRFYNSAKVLRMEIPFAPEELEEAIKEVVRRNGYRSCYIRPLAWMGAKALGVNPLPNNPAEVMVAAWEWGAYLGEEAVRKGARLITSSWARFPANVMPGKAKVGGNYVNSALAKMEAVAAGADEALLLDEEGYVAEGSGENLFFVRDGVIYALEHSVNLEGITRDSVIRIAKDLGYEVQVVRATRDQLYMADEVFMTGTAAEVTPVSMIDWRPIGKGTAGPVALRLREVYLEAVTGRRPEYEGWLTYVNGQ | not failed |
| MQINGKAPRNKDLEPHSFELWLNAAKTNLDKYEMALIITATLGLRRGEVMGLRNESIKISHDQINDADVAQISIDMQRNTNELNGGPLKTKSSYRTIWAFGKTVDHLKYAMITADNLRQRNNIQAEKHWLWLNNDGNPLHPTHLNRLMRRVSNRSGVEVYPHLLRHYFATQAIAANKPQIDVMHYLGHKNLQMTADYTRSTKAASLNVFNSIDKFLLEHHHHHH | not failed |
| MQISDIEVFAAIASSRSLSEAARRLGLSPMAISRRLAALENDLGVRLFHRTTRSVSLTPEGEVFLPHAKTILEASEAARTTLKADAGSASGVLRVTAPSVFGQTVIMPLLPALMLENPALSIDLTLSDSIVDIAGLGIDVAIRIATIRDSALVARSLAPNPRVVCVSPDYLARHGKPTLLEELRHHPCIALHAMPWWPFTRNGEPITIRAQGPFSANSVEAVRTACKQGMGLAMLTYWDVRQEINEGSLQQVDFEDAMPEQLSVTAVLPTRQRVPHRVRLFIDRLEAALKSKAGAAGVTL | failed |
| MQIYQLSGRNVEVTEPMREYVEEKLSRLDRYTDQITDARVTLTVRDVRNNERRNRVEVQLNVPGGIIRAEEHHADMYAAIDKASDVLERQLRKFKTRYMKQRQEGRPEPLPGPAEAEVNAQGSGAAMDDVSEFHPEIVRQKRFELRPMSAEDAVVQMEALGHDFYVFQDLQGQTGVVYRRRDGHYGLIGSS | failed |
